Measurements as given in the supplement of paper PMC12042874.
± gives the uncertainty stated by the source.

Experiment: amyloid nucleation score (Sup35N fusion, yeast selection) (log enrichment); library NNK1; higher = more nucleation; inactive = no reads after selection
Method in brief: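 Sup35N was fused to peptides of 20 random codons and expressed in psi-negative yeast, which were induced with 100 μM copper sulfate for 24 hours and then grown on medium lacking adenine and uracil for 7 days at 30°C. Plasmid inserts from input and output were sequenced on Illumina. The nucleation score is the DiMSum log enrichment of output over input reads, centred on the mode score of non-aggregating sequences. Sequences with under 100 input reads were left out, and random libraries had three technical output replicates.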

Substance	amyloid nucleation score
LMTLDYSTYQHRRATDVWDG	-0.65 ± 1.3
IEVGYLSTCEFLVRMRKL	0.346 ± 0.51
LIHVCQYCVRPVNGGSVNLR	0.264 ± 0.44
RWNFFTFWFLW	0.048 ± 0.46
MCDYFYNIVFVKCCALWCLD	4.01 ± 0.069
IILYVLANFIMWWREVFNPK	0.218 ± 0.48
MHPFVRSEK	0.168 ± 0.36
IRHIRPFFNVKDI	-0.006 ± 0.37
GLACYM	0.413 ± 0.4
IGLKKGHYNLILHYYFVWKV	0.505 ± 0.51
SVWVVCFVSRNVLVMFNSNF	inactive
MSVLALVPGYLSA	-0.088 ± 0.46
CELPTRLF	-0.143 ± 0.33
FSSCVNDFLGGRPPSKVLSF	0.068 ± 0.48
EFKLIDLFLLYWLSREHNQF	0.391 ± 0.42
LYFITTM	1.18 ± 0.59
ICHCGRHAVHRRHTCHWTLG	inactive
DKLLPHFK	inactive
FDSQDSISFGDGTFKSVWPM	0.177 ± 0.31
DRSTIWSTHNSTYVVYYLVV	5.18 ± 0.063
EDSSTSLLVGMELKRLTVSF	0.258 ± 0.35
SVGGVAGEF	-0.087 ± 0.96
GLMDRRTFITICVYPFMESW	4.37 ± 0.071
LGEMGRVSYLYVCLHWALLS	0.119 ± 0.44
RFKRWGKR	0.39 ± 0.41

Substance	amyloid nucleation score
HGAVLCC	0.305 ± 1.4
FYGCFRVHCVISMLGWR	0.109 ± 0.36
TYYKQYVLMYRALNFAGSWS	1.21 ± 0.79
PFNKKFRYVMPRLQRTHVFM	inactive
RLCRTVEWCGCYSIPNLQCA	0.118 ± 0.46
SLAGFCMQPRTLLV	0.86 ± 0.83
GMSPPSNSFFSFCFTGLVKF	0.319 ± 0.61
KGHSANVYTAPLLCNNCHFF	6.703 ± 0.059
FIEHTYVEEG	0.19 ± 0.23
LVIFKLTM	3.51 ± 0.066
FYSMSGWYSTVKGVCIRTLT	1.02 ± 0.35
KMSAWQFGGHVLCNARMGYE	-0.112 ± 0.36
RFSAK	0.585 ± 0.33
CSVTLVVRV	0.676 ± 0.63
ATGARLKLCQELRSTLGMLT	-0.608 ± 0.45
GHSFGTVTDCVANQYNFLNI	2.37 ± 0.19
PNYHGVRGM	-0.086 ± 1.2
NGTAVCLVRSLVYAHHGRQG	0.481 ± 0.38
PTGNGKLFSGKYYPYDVRRS	-0.169 ± 0.29
VYQVNVGCWSCGCRTVICNR	7.932 ± 0.045
FHDLGSKCYSMRGTADCFSR	0.347 ± 0.72
VYHSCSDMCFKAFQVNTYQC	1.16 ± 0.66
SWMSRKEENSGLILVAVYLV	1.29 ± 0.76
SLLLLMGALSHGMRLFKGSS	0.268 ± 0.82
KLCQVRHVSWIMSCQRYKQD	0.058 ± 0.49

Substance	amyloid nucleation score
HLYLFSGFRAVSESEVRGAK	2.6 ± 0.22
SKCDQSIRYSRGNETPLDSL	0.274 ± 0.83
GGWDAGGGHAIRRIVECMVR	0.601 ± 1.1
RVSMVEVNLIYYMLPGHA	-0.125 ± 0.54
GVVSFNFDSLQF	-0.471 ± 0.65
CYTLFAVVNMLLVFNWQCRD	-0.34 ± 0.36
SLDYKFSFLSQ	6.963 ± 0.045
RLSIFRLYPLLCRRG	0.163 ± 0.34
LWLLYVIECHLGCYRTVLMG	-0.385 ± 0.93
DVGGCHVVTGFERNVKGDLL	1.44 ± 0.78
AFSSVEFRLDVNVFPEWVVL	3.9 ± 0.12
MTAIFSRSSQNFFVGW	7.154 ± 0.066
KCLSLNCMPYTFLLSRYYPY	inactive
TNFFGSPCAMCNFSLDICSK	8.038 ± 0.057
GVVITSPWGA	1.18 ± 0.85
HLGTTNMNVFNVG	1.79 ± 0.082
LSLSYHMLSYI	inactive
LIVRNRHCLGAPFENFFSAR	0.671 ± 0.37
HWCYVLNS	inactive
VITFITSL	3.85 ± 0.064
IEWVPTT	inactive
EVFNEKSVSLRGWNIHGNFC	0.03 ± 0.94
WVCSNNMHMSIANVGLDCNL	0.178 ± 0.33
SGAPESYGDTNRRIVSSCFL	inactive
TSHSGIEFRLEFARSSPPSQ	-0.161 ± 0.66

Substance	amyloid nucleation score
TNPLDPLLCNVYQVLDMPCM	0.497 ± 0.58
GHTRR	-0.062 ± 0.41
YNCLYDRPFRMMSQCLNIGM	-1.59 ± 1.2
WSSYTFR	0.839 ± 0.63
WCDGYVMFLDTNCIRINHIL	-0.162 ± 0.24
LTSFETFQNFNMAVMYAR	-0.236 ± 0.65
CSSWVMGLIFWECLKNMDKV	-1.39 ± 1.3
LGWIDSYTYHWDTIHRKQFR	0.878 ± 0.33
YTVSNQLLSRLRGVQHNKLK	-1.11 ± 0.92
MFGQWMAPHQTRFGSGQFGW	-0.038 ± 0.38
IRIFNKHGHGG	-0.664 ± 0.36
NNSSIVFLW	-0.057 ± 1.4
VTDEFCPVLSGG	0.317 ± 0.52
SETQNRLS	-0.024 ± 0.33
FGNRELFLYFVCVKRDILVG	-1.23 ± 0.64
PCWGGTLGSVKLVVSSSA	inactive
WIYRFPHKMHVIEDVRSVN	0.894 ± 0.58
MTWNNWCSMRLACIS	3.9 ± 0.074
VNTMPILFFMPCVMKLSV	1.53 ± 0.57
SGNKGRLSLLYYILFMPWLA	-0.412 ± 1
CGIDKSDRIMLIKTVQLSVQ	0.09 ± 0.68
STNLMKMWLFHLRDTAR	0.583 ± 0.37
LGNIKFITYVERCTQEVVSY	-1.49 ± 1.8
FNLNNGIR	inactive
CVNQWILVPGRAF	inactive

Substance	amyloid nucleation score
SYMGSNSSYYCMRGWGRTWY	2.14 ± 0.095
SMYSNRHHDWFR	-0.412 ± 1.4
DTNVVWYYLSWDSPGNGDWK	inactive
SRVSYPGFYYGCPVFQYYSA	7.589 ± 0.053
LKGKTLVMSFFRSAKITVAH	inactive
FVLLNLPLVKRVCRIVGYWG	-0.327 ± 0.51
FNYNLCMFMHSVELFLIKIE	8.162 ± 0.075
DGQPLLMGEHYSLGITLM	1.1 ± 0.81
FRKFSCCVGSLVSSSYVLDS	6.16 ± 0.064
VTIHETCRVWRFVRTDRRWG	0.553 ± 0.46
HEKDWLTSVCFISELSTFNN	0.709 ± 0.65
HCGGNSRSVN	-1.11 ± 0.83
RPMTVSKEAAKSDGCQKLNT	-0.634 ± 0.48
TGCGERWGQSMVIGVSL	-0.102 ± 0.62
EVMPPLKLPRHFEEIRAEAG	-0.184 ± 0.51
CRDAILIEVGNYRHLVLGPV	0.677 ± 0.52
SSYRNWYRRSGDQLYYLEP	0.876 ± 0.42
VMCQCYSGGM	1.31 ± 0.4
MHWFRVN	0.324 ± 0.3
ATAVYMSVLMVPDLRMKAEG	1.5 ± 0.7
THCVSLLGIYFFSSWVMIVR	-0.266 ± 0.4
RYMDMLLRTDWDWLVSQCRF	-0.344 ± 0.33
TGATATYKFFIFFIL	1.28 ± 0.22
RYGAESELTPRSASHGYWKF	-0.313 ± 1.1
SLTYCHSIIKDLETLIFRSK	0.283 ± 0.61

Substance	amyloid nucleation score
YPGEGEPKKYLPYNRLCWRS	1.08 ± 0.69
IQFPRLGGDTTVCDYGHVAI	1.32 ± 0.49
AWRIIPGILAFTFEEM	-0.428 ± 0.79
KAPCDFSGFCRCRVTGPSHC	0.412 ± 0.33
LLIEWRLDSGWCTTGSENRD	-0.347 ± 0.4
MYFCM	6.7 ± 0.059
LWMFRFNYYDVLPCGMPGLC	0.694 ± 0.66
CLLFNGNKLVCSHILMRKNG	0.443 ± 0.23
EHGNVACRWDTHISLVWCHF	7.304 ± 0.057
SAILVLFEVHFMAPLLCHYL	0.208 ± 0.42
WKKPIQGSVW	0.295 ± 0.49
YVYRFNFLNFVW	1.93 ± 0.12
IELPRFYILVNFYGTLSLSL	3.83 ± 0.12
FWHPLG	-0.342 ± 0.28
SVNRCGVYFTEGFFSLRWS	1.13 ± 0.25
CLARGSKYWNRQNKVNFPYI	1.51 ± 0.13
RYNMPFYRDRRFCFFEKGLG	-0.077 ± 0.77
ILYGISSFESIADWAGLMSV	0.535 ± 0.84
RNCFMGRTVNSVSNYVESSW	inactive
IKPDWKMKNRDGTTTKLI	2.6 ± 0.093
PIFKMDCGDMVCT	0.121 ± 0.22
VWLRNTKEMCFV	1.64 ± 0.11
KDSFLMGGLFFMTAAWVSPR	1.54 ± 0.27
WGYNRLNDDELLIMSKFLRQ	1 ± 0.48
KVRMLNMVYKNLSDRD	0.884 ± 0.56

Substance	amyloid nucleation score
GPHLIKVCFSEPMGFKVFLL	2.12 ± 0.14
ACLATNCVSFANFASCCWGW	7.154 ± 0.059
VVQFKMWACQTFFMDLRNTM	1.56 ± 0.11
LPALKCELGAAMLSAQLMAR	-0.18 ± 0.24
RQFRIGNYENFATREWALGL	1.7 ± 0.14
LIQIDLF	-0.264 ± 0.56
YSIVFGWLRYRLDWMCLISL	0.055 ± 0.26
CFPFIFRIGFTNNGADSLVK	-0.507 ± 0.63
VRIRPISPMPDYSPPANWSK	0.041 ± 0.47
QRRHYTWMLIRKRSSLHKAR	-0.462 ± 0.59
CCHYDHKSGVNSLRRKTNVW	1.57 ± 0.43
GKWFVKRGRIRSAENCIRLF	-0.785 ± 1.1
TLITWTLVSVGIWTMQS	1.56 ± 0.53
IDWQLTSLDQGSCFLA	-0.468 ± 0.88
LFMIMLL	-1.01 ± 0.43
GHWLRQVSRRLVPADDCMVQ	inactive
VRLTSINSLCIVGDTQGST	0.945 ± 0.73
SRVSLRRQCYVRVNGLCLYI	1.84 ± 0.3
GSTRYHAKMDPGWVRFT	-0.482 ± 1.7
NFRLEYDLCVGLTSSHIGGL	-0.219 ± 0.48
